# T1: human claudin 6 (CLDN6) (human, UniProt P56747 1-220)
# T1 construct: also called human CLDN6; hCLDN6
# T1 sequence: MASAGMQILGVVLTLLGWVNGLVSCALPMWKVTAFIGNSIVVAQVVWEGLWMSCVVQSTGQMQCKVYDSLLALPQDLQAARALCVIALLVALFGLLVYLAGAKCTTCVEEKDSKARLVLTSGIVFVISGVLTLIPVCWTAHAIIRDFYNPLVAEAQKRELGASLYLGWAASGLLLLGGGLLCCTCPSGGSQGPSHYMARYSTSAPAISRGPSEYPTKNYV
# Biological target: T1, human claudin 6 (CLDN6)
# Experiment: FACS, HEK293T/human CLDN6 cells
# Method: For affinity determination, CLDN6 over-expressing HEK293T cells and cancer cell line PA-1 which express high levels of human CLDN6 were used to evaluate the binding activity of BG87P related engineering variants. Live cells were seeded in 96-well plate, and were incubated with a series of dilutions of chBG87P and engineered variants thereof. Goat anti-human IgG was used as second antibody to detect antibody binding to the cell surface. EC50 values for dose-dependent binding to CLDN6 expressing cell lines were determined by fitting the dose-response data to the four-parameter logistic model with GraphPad Prism. Cell binding activity of 1st round of BG87P humanization variants against HEK293T/human CLDN6 were compared to chBG87P and shown in FIG. 1A.
# Beginning with the chBG87P antibody and BG87P-Bz0, several additional amino acid changes in the CDR regions of both VH and VL were made to further improve the biophysical properties for therapeutics use in human. The considerations included removing post translational modifications (PTM), improved heat stability (Tm), while maintaining binding activities, the resulted variants are BG87P-m1 (VH SEQ ID NO: 31 and VL SEQ ID NO: 8), BG87P-m2 (VH SEQ ID NO: 32 and VL SEQ ID NO: 8), BG87P-m3 (VH SEQ ID NO: 33 and VL SEQ ID NO: 8), and BG87P-m4 (VH SEQ ID NO: 34 and VL SEQ ID NO: 8) and BG87P-m5 (VH SEQ ID NO: 35 and VL SEQ ID NO: 14), BG87P-m6 (VH SEQ ID NO: 36 and VL SEQ ID NO 14), BG87P-m7 (VH SEQ ID NO: 37 and VL SEQ ID NO: 14), and BG87P-m8 (VH SEQ ID NO: 38 and VL SEQ ID NO: 14). Cell binding activity of chBG87P and BG87P-Bz0 related PTM removal variants against HEK293T/human CLDN6 was compared with chBG87P and BG87-Bz0, respectively ([…]). Cell binding affinity (EC50) and Emax (MFI) was normalized to chBG87P for directly comparison and ranking (Table 7).
EC50 [nM],Emax ratio to BG87P [ratio],Top MFI Mean [MFI],Binder
48.7,0.28,54000,"BG87P-m8 (antibody, V domains shown, Variant of BG87P-Bz0 with H33A; constant regions not restated (parent: human IgG1/kappa)) VH: QIQLVQSGAEVKKPGASVKVSCKASGYSFTDYAINWVRQAPGQRLEWMGWIYPGSGYTKYNEKFKVRVTLTVDTSASTAYMELSSLRSEDTAVYFCARSGIYHYVSSYYFDHWGKGTTVTVSS VL: DIQMTQSPSTLSASVGDRVTITCKASQDVGTAVAWYQQKPGKSPKLLIYWASTRHTGVPSRFSGSGSGTEFTLTISSVQPDDFATYFCQQYSSYTFGGGTKVEIK"
2.34,0.62,118000,"BG87P-m6 (antibody, V domains shown, PTM removal variant of BG87P-Bz0; constant regions not restated (parent: human IgG1/kappa)) VH: QIQLVQSGAEVKKPGASVKVSCKASGYSFTDYHINWVRQAPGQRLEWMGWIYPGSGYTKYNEKFKVRVTLTVDTSASTAYMELSSLRSEDTAVYFCARSGIYHYVSSYYFQHWGKGTTVTVSS VL: DIQMTQSPSTLSASVGDRVTITCKASQDVGTAVAWYQQKPGKSPKLLIYWASTRHTGVPSRFSGSGSGTEFTLTISSVQPDDFATYFCQQYSSYTFGGGTKVEIK"
2.43,0.7,134000,"BG87P-m7 (antibody, V domains shown, PTM removal variant of BG87P-Bz0; constant regions not restated (parent: human IgG1/kappa)) VH: QIQLVQSGAEVKKPGASVKVSCKASGYSFTDYHINWVRQAPGQRLEWMGWIYPGSGYTKYNEKFKGRVTLTVDTSASTAYMELSSLRSEDTAVYFCARSGIYHYVSSYYFDHWGKGTTVTVSS VL: DIQMTQSPSTLSASVGDRVTITCKASQDVGTAVAWYQQKPGKSPKLLIYWASTRHTGVPSRFSGSGSGTEFTLTISSVQPDDFATYFCQQYSSYTFGGGTKVEIK"
4.19,0.66,126000,"BG87P-m5 (antibody, V domains shown, PTM removal variant of BG87P-Bz0; constant regions not restated (parent: human IgG1/kappa)) VH: QIQLVQSGAEVKKPGASVKVSCKASGYSFTDYHINWVRQAPGQRLEWMGWIYPGSGYTKYNEKFKVRVTLTVDTSASTAYMELSSLRSEDTAVYFCARSGIYHYVSSYYFEHWGKGTTVTVSS VL: DIQMTQSPSTLSASVGDRVTITCKASQDVGTAVAWYQQKPGKSPKLLIYWASTRHTGVPSRFSGSGSGTEFTLTISSVQPDDFATYFCQQYSSYTFGGGTKVEIK"
2.32,1.18,227000,"BG87P-m3 (antibody, V domains shown, PTM removal variant of chBG87P (VH V65G); constant regions not restated (parent: human IgG1/kappa)) VH: QIQLQQSGPELVKPGASVKISCKASGYSFTDYHINWVKQRPGQGLEWIGWIYPGSGYTKYNEKFKGKATLTVDTSSSTAYMHLTSLTSEDSAVYFCARSGIYHYVSSYYFDHWGQGTTLTVSS VL: DIVMTQSHTFMSTSVGDRVSITCKASQDVGTAVAWYQQKPGQSPKLLIYWASTRHTGVPDRFTGSGSGTDFTLTISNVQSEDLADYFCQQYSSYTFGGGTKLEIK"

# More lines, now with the values behind:
Binder,EC50 [nM],Emax ratio to BG87P [ratio],Top MFI Mean [MFI]
"BG87P-Bz0 (antibody, V domains shown, also called BG87-Bz0) VH: QIQLVQSGAEVKKPGASVKVSCKASGYSFTDYHINWVRQAPGQRLEWMGWIYPGSGYTKYNEKFKVRVTLTVDTSASTAYMELSSLRSEDTAVYFCARSGIYHYVSSYYFDHWGKGTTVTVSS VL: DIQMTQSPSTLSASVGDRVTITCKASQDVGTAVAWYQQKPGKSPKLLIYWASTRHTGVPSRFSGSGSGTEFTLTISSVQPDDFATYFCQQYSSYTFGGGTKVEIK",2.1,0.56,107000
"BG87P-Bz3 (antibody, V domains shown) VH: QIQLVQSGAEVKKPGASVKVSCKASGYSFTDYHINWVRQAPGQRLEWMGWIYPGSGYTKYNEKFKVRVTITVDTSASTAYMELSSLRSEDTAVYFCARSGIYHYVSSYYFDHWGKGTTVTVSS VL: DIQMTQSPSTLSASVGDRVTITCKASQDVGTAVAWYQQKPGKSPKLLIYWASTRHTGVPSRFSGSGSGTEFTLTISSVQPDDFATYFCQQYSSYTFGGGTKVEIK",2.63,0.56,107000
"BG87P-Bz6 (antibody, V domains shown) VH: QIQLVQSGAEVKKPGASVKVSCKASGYSFTDYHINWVRQAPGQRLEWMGWIYPGSGYTKYNEKFKVRVTLTVDTSASTAYMELSSLRSEDTAVYFCARSGIYHYVSSYYFDHWGKGTTVTVSS VL: DIQMTQSPSTLSASVGDRVTITCKASQDVGTAVAWYQQKPGKAPKLLIYWASTRHTGVPSRFSGSGSGTEFTLTISSVQPDDFATYFCQQYSSYTFGGGTKVEIK",2.79,0.75,144000
"BG87P-Bz2 (antibody, V domains shown) VH: QIQLVQSGAEVKKPGASVKVSCKASGYTFTDYHINWVRQAPGQRLEWMGWIYPGSGYTKYNEKFKVRVTLTVDTSASTAYMELSSLRSEDTAVYFCARSGIYHYVSSYYFDHWGKGTTVTVSS VL: DIQMTQSPSTLSASVGDRVTITCKASQDVGTAVAWYQQKPGKSPKLLIYWASTRHTGVPSRFSGSGSGTEFTLTISSVQPDDFATYFCQQYSSYTFGGGTKVEIK",2.65,0.44,84300
"BG87P-Bz5 (antibody, V domains shown) VH: QIQLVQSGAEVKKPGASVKVSCKASGYSFTDYHINWVRQAPGQRLEWMGWIYPGSGYTKYNEKFKVRVTLTVDTSASTAYMELSSLRSEDTAVYYCARSGIYHYVSSYYFDHWGKGTTVTVSS VL: DIQMTQSPSTLSASVGDRVTITCKASQDVGTAVAWYQQKPGKSPKLLIYWASTRHTGVPSRFSGSGSGTEFTLTISSVQPDDFATYFCQQYSSYTFGGGTKVEIK",2.55,0.73,141000
"BG87P-Bz1 (antibody, V domains shown) VH: QVQLVQSGAEVKKPGASVKVSCKASGYSFTDYHINWVRQAPGQRLEWMGWIYPGSGYTKYNEKFKVRVTLTVDTSASTAYMELSSLRSEDTAVYFCARSGIYHYVSSYYFDHWGKGTTVTVSS VL: DIQMTQSPSTLSASVGDRVTITCKASQDVGTAVAWYQQKPGKSPKLLIYWASTRHTGVPSRFSGSGSGTEFTLTISSVQPDDFATYFCQQYSSYTFGGGTKVEIK",2.19,0.52,99700
"BG87P-Bz4 (antibody, V domains shown) VH: QIQLVQSGAEVKKPGASVKVSCKASGYSFTDYHINWVRQAPGQRLEWMGWIYPGSGYTKYNEKFKVRVTLTRDTSASTAYMELSSLRSEDTAVYFCARSGIYHYVSSYYFDHWGKGTTVTVSS VL: DIQMTQSPSTLSASVGDRVTITCKASQDVGTAVAWYQQKPGKSPKLLIYWASTRHTGVPSRFSGSGSGTEFTLTISSVQPDDFATYFCQQYSSYTFGGGTKVEIK",1.88,0.57,110000
"BG87P-Bz8 (antibody, V domains shown) VH: QIQLVQSGAEVKKPGASVKVSCKASGYSFTDYHINWVRQAPGQRLEWMGWIYPGSGYTKYNEKFKVRVTLTVDTSASTAYMELSSLRSEDTAVYFCARSGIYHYVSSYYFDHWGKGTTVTVSS VL: DIQMTQSPSTLSASVGDRVTITCKASQDVGTAVAWYQQKPGKSPKLLIYWASTRHTGVPSRFSGSGSGTEFTLTISSVQPDDFATYYCQQYSSYTFGGGTKVEIK",1.71,0.68,131000
"BG87P-Bz7 (antibody, V domains shown) VH: QIQLVQSGAEVKKPGASVKVSCKASGYSFTDYHINWVRQAPGQRLEWMGWIYPGSGYTKYNEKFKVRVTLTVDTSASTAYMELSSLRSEDTAVYFCARSGIYHYVSSYYFDHWGKGTTVTVSS VL: DIQMTQSPSTLSASVGDRVTITCKASQDVGTAVAWYQQKPGKSPKLLIYWASTRHTGVPSRFSGSGSGTEFTLTISSLQPDDFATYFCQQYSSYTFGGGTKVEIK",2.54,0.81,155000
"BG87P-m1 (antibody, V domains shown, PTM removal variant of chBG87P; constant regions not restated (parent: human IgG1/kappa)) VH: QIQLQQSGPELVKPGASVKISCKASGYSFTDYHINWVKQRPGQGLEWIGWIYPGSGYTKYNEKFKVKATLTVDTSSSTAYMHLTSLTSEDSAVYFCARSGIYHYVSSYYFEHWGQGTTLTVSS VL: DIVMTQSHTFMSTSVGDRVSITCKASQDVGTAVAWYQQKPGQSPKLLIYWASTRHTGVPDRFTGSGSGTDFTLTISNVQSEDLADYFCQQYSSYTFGGGTKLEIK",3.56,1.08,207000
"BG87P-m2 (antibody, V domains shown, PTM removal variant of chBG87P; constant regions not restated (parent: human IgG1/kappa)) VH: QIQLQQSGPELVKPGASVKISCKASGYSFTDYHINWVKQRPGQGLEWIGWIYPGSGYTKYNEKFKVKATLTVDTSSSTAYMHLTSLTSEDSAVYFCARSGIYHYVSSYYFQHWGQGTTLTVSS VL: DIVMTQSHTFMSTSVGDRVSITCKASQDVGTAVAWYQQKPGQSPKLLIYWASTRHTGVPDRFTGSGSGTDFTLTISNVQSEDLADYFCQQYSSYTFGGGTKLEIK",2.51,1.05,202000
